Laboratory results reported in US12180485B2, “Repressible control of gene expression” (TRUSTEES OF BOSTON UNIVERSITY, priority 2020, dated 2024).

B1: SEQ ID NO: 813: inducible system polypeptide, probably Table 20 (GID-GAI) (protein)
chain: MAASDEVNLIESRTVVPLNTWVLISNFKVAYNILRRPDGTFNRHLAEYLDRKVTANANPVDGVFSFDVLIDRRINLLSRVYRPAYADQEQPPSILDLEKPVDGDIVPVILFFHGGSFAHSSANSAIYDTLCRRLVGLCKCVVVSVNYRRAPENPYPCAYDDGWIALNWVNSRSWLKSKKDSKVHIFLAGDSSGGNIAHNVALRAGESGIDVLGNILLNPMFGGNERTESEKSLDGKYFVTVRDRDWYWKAFLPEGEDREHPACNPFSPRGKSLEGVSFPKSLVVVAGLDLIRDWQLAYAEGLKKAGQEVKLMHLEKATVGFYLLPNNNHFHNVMDEISAFVNAECSGGSGSGSSGGSGTAKFVEEYAFFKDSAKIADELRLIKSFARMGEPIADARRAMYIDAIRILGTNLSYDELKALADTFSLDENGNKLKKGKHGMRNFIINNVISNKRFHYLIRYGDPAHLHEIAKNEAVVKFVLGRIADIQKKQGQNGKNQIDRYYETCIGKDKGKSVSEKVDALTKIITGMNYDQFDKKRSVIEDTGRENAEREKFKKIISLYLTVIYHILKNIVNINARYVIGFHCVERDAQLYKEKGYDINLKKLEEKGFSSVTKLCAGIDETAPDKRKDVEKEMAERAKESIDSLESANPKLYANYIKYSDEKKAEEFTRQINREKAKTALNAYLRNTKWNVIIREDLLRIDNKTCTLFRNKAVHLEVARYVHAYINDIAEVNSYFQLYHYIMQRIIMNERYEKSSGKVSEYFDAVNDEKKYNDRLLKLLCVPFGYCIPRFKNLSIEALFDRNEAAKFDKEKKKVSGNSGSGPKKKRKVPKKKRKV
B2: SEQ ID NO: 810: inducible system polypeptide, probably Table 20 (GID-GAI) (protein)
chain: MIEKKKSFAKGMGVKSTLVSGSKVYMTTFAEGSDARLEKIVEGDSIRSVNEGEAFSAEMADKNAGYKIGNAKFSHPKGYAVVANNPLYTGPVQQDMLGLKETLEKRYFGESADGNDNICIQVIHNILDIEKILAEYITNAAYAVNNISGLDKDIIGFGKFSTVYTYDEFKDPEHHRAAFNNNDKLINAIKAQYDEFDNFLDNPRLGYFGQAFFSKEGRNYIINYGNECYDILALLSGLRHWVVHNNEEESRISRTWLYNLDKNLDNEYISTLNYLYDRITNELTNSFSKNSAANVNYIAETLGINPAEFAEQYFRFSIMKEQKNLGFNITKLREVMLDRKDMSEIRKNHKVFDSIRTKVYTMMDFVIYRYYIEEDAKVAAANKSLPDNEKSLSEKDIFVINLRGSFNDDQKDALYYDEANRIWRKLENIMHNIKEFRGNKTREYKKKDAPRLPRILPAGRDVSAFSKLMYALTMFLDGKEINDLLTTLINKFDNIQSFLKVMPLIGVNAKFVEEYAFFKDSAKIADELRLIKSFARMGEPIADARRAMYIDAIRILGTNLSGGSGSGSSGGSGTMKRDHHHHHHQDKKTMMMNEEDDGNGMDELLAVLGYKVRSSEMADVAQKLEQLEVMMSNVQEDDLSQLATETVHYNPAELYTWLDSMLTDLNPKKKRKV
B3: SEQ ID NO: 1206: inducible system polypeptide, probably Table 22 (reader and repressible protease) (protein)
chain: MAPKKKRKVGIHGVPAASSDEEEARELIERAKEAAERAQEAAERTGDPRVRELARELKRLAQEAAEEVKRDPSSSDVNEALKLIVEAIEAAVDALEAAERTGDPEVRELARELVRLAVEAAEEVQRNPSSSDVNEALHSIVYAIEAAIFALEAAERTGDPEVRELARELVRLAVEAAEEVQRNPSSRNVEHALMRIVLAIYLAEENLREAEESGDPEKREKARERVREAVERAEEVQRDPSGWLNHSGGSGSGSSGGSGTAKFVEEYAFFKDSAKIADELRLIKSFARMGEPIADARRAMYIDAIRILGTNLSYDELKALADTFSLDENGNKLKKGKHGMRNFIINNVISNKRFHYLIRYGDPAHLHEIAKNEAVVKFVLGRIADIQKKQGQNGKNQIDRYYETCIGKDKGKSVSEKVDALTKIITGMNYDQFDKKRSVIEDTGRENAEREKFKKIISLYLTVIYHILKNIVNINARYVIGFHCVERDAQLYKEKGYDINLKKLEEKGFSSVTKLCAGIDETAPDKRKDVEKEMAERAKESIDSLESANPKLYANYIKYSDEKKAEEFTRQINREKAKTALNAYLRNTKWNVIIREDLLRIDNKTCTLFRNKAVHLEVARYVHAYINDIAEVNSYFQLYHYIMQRIIMNERYEKSSGKVSEYFDAVNDEKKYNDRLLKLLCVPFGYCIPRFKNLSIEALFDRNEAAKFDKEKKKVSGNSGSGPKKKRKV
B4: SEQ ID NO: 391: PV1-ABI-L1-Cas13-508C-BGHpA (protein)
chain: MPLYGFTSICGRRPEMEDAVSTIPRFLQSSSGSMLDGRFDPQSAAHFFGVYDGHGGSQVANYCRERMHLALAEEIAKEKPMLCDGDTWLEKWKKALFNSFLRVDSEIGSVAPETVGSTSVVAVVFPSHIFVANCGDSRAVLCRGKTALPLSVDHKPDREDEAARIEAAGGKVIQWNGARVFGVLAMSRSIGDRYLKPSIIPDPEVTAVKRVKEDDCLILASDGVWDVMTDEEACEMARKRILLWHKKNAVAGDASLLADERRKEGKDPAAMSAAEYLSKLAIQRGSKDNISVVVVDLKDYKDDDDKSGGSGSGSSGGSGTAKFVEEYAFFKDSAKIADELRLIKSFARMGEPIADARRAMYIDAIRILGTNLSYDELKALADTFSLDENGNKLKKGKHGMRNFIINNVISNKRFHYLIRYGDPAHLHEIAKNEAVVKFVLGRIADIQKKQGQNGKNQIDRYYETCIGKDKGKSVSEKVDALTKIITGMNYDQFDKKRSVIEDTGRENAEREKFKKIISLYLTVIYHILKNIVNINARYVIGFHCVERDAQLYKEKGYDINLKKLEEKGFSSVTKLCAGIDETAPDKRKDVEKEMAERAKESIDSLESANPKLYANYIKYSDEKKAEEFTRQINREKAKTALNAYLRNTKWNVIIREDLLRIDNKTCTLFRNKAVHLEVARYVHAYINDIAEVNSYFQLYHYIMQRIIMNERYEKSSGKVSEYFDAVNDEKKYNDRLLKLLCVPFGYCIPRFKNLSIEALFDRNEAAKFDKEKKKVSGNSGSGPKKKRKVPKKKRKV
B5: SEQ ID NO: 814: inducible system polypeptide, probably Table 20 (GID-GAI) (protein)
chain: MIEKKKSFAKGMGVKSTLVSGSKVYMTTFAEGSDARLEKIVEGDSIRSVNEGEAFSAEMADKNAGYKIGNAKFSHPKGYAVVANNPLYTGPVQQDMLGLKETLEKRYFGESADGNDNICIQVIHNILDIEKILAEYITNAAYAVNNISGLDKDIIGFGKFSTVYTYDEFKDPEHHRAAFNNNDKLINAIKAQYDEFDNFLDNPRLGYFGQAFFSKEGRNYIINYGNECYDILALLSGLRHWVVHNNEEESRISRTWLYNLDKNLDNEYISTLNYLYDRITNELTNSFSKNSAANVNYIAETLGINPAEFAEQYFRFSIMKEQKNLGFNITKLREVMLDRKDMSEIRKNHKVFDSIRTKVYTMMDFVIYRYYIEEDAKVAAANKSLPDNEKSLSEKDIFVINLRGSFNDDQKDALYYDEANRIWRKLENIMHNIKEFRGNKTREYKKKDAPRLPRILPAGRDVSAFSKLMYALTMFLDGKEINDLLTTLINKFDNIQSFLKVMPLIGVNSGGSGSGSSGGSGTMKRDHHHHHHQDKKTMMMNEEDDGNGMDELLAVLGYKVRSSEMADVAQKLEQLEVMMSNVQEDDLSQLATETVHYNPAELYTWLDSMLTDLNPKKKRKV

Tested on: mCherry expression in HEK293 FT cells
Assay: Inducible split RfxCas13d (GIB, RAP, ABA, Dano, GRZ CID domains; NES/NLS variants) mCherry knockdown, leakiness and inducibility
Type: cell-based
Conditions: inducible polypeptide systems of Tables 18-22
Text: FIG. 6A-6C is a series of schematics and graphs showing that split RfxCas13d's reconstituted and functioned to knockdown mCherry expression in HEK293 FT cells FIG. 6A is a schematic showing split sites selected throughout RfxCas13d sequence. FIG. 6B is a bar graph showing mCherry expression under 4 conditions for gibberellin-inducible, rapalog-inducible, and abscisic acid-inducible inducible split Cas13d designs. In FIG. 6B and FIG. 6C, the left-right order of the bars for each split site is the same as the left-right order of the legend for each bar graph.
FIG. 7A-7E is a series of schematics and graphs showing a functional and inducible split Cas13d design. FIG. 7A is a bar graph showing additional split sites selected in RfxCas13d and tested with GIB CID domains. […] In FIG. 7A and FIG. 7C, the left-right order of the bars for each split site is the same as the left-right order of the legend. FIG. 7B is a schematic showing the design to compartmentalize splits. Compartmentalizing moieties facilitates the reduction of leakiness. […] FIG. 7D is a schematic showing the experiment flow for testing reversibility of the inducible split Cas13d's.
FIG. 8A-8B is a series of schematics and graphs showing that split RfxCas13d's reconstituted upon drug-induced dimerization and knocked down mCherry expression in HEK293 FT cells. FIG. 8A is a bar graph showing quantification of system performance. The left-right order of the bars for each split site is the same as the top-down order of the legend. […] System performance in leakiness score (left axis) and induced activity (right axis) by GIB, RAP, ABA, and Dano-inducible split Cas13d designs.
FIG. 10A-10B is a series of schematics and graphs showing performance optimization through separating split Cas13d moieties in different cellular compartments. […] The left-right order of the bars for each bar graph is the same as the top-down order of the legend.
FIG. 11 is a series of schematics and graphs showing the testing of reversed orientation (dark grey dots) of CID domains with respect to split Cas13d pieces against original orientations (light grey dots) designed for GIB, ABA, Dano, and GRZ inducible systems.

| Molecule | performance in the tested conditions |
| --- | --- |
| B1 | highest performance |
| B2 | highest performance |
| B3 | highest performance |
| B4 | highest performance |
| B5 | highest performance |
